Source: PMC8234031, “Modular Assembly of Phosphite Dehydrogenase and Phenylacetone Monooxygenase for Tuning Cofactor Regeneration” (Biomolecules, 2021)

B1: PAMOI (phenylacetone monooxygenase with a C-terminal RIDD tag) (enzyme)
chain: MAGQTTVDSRRQPPEEVDVLVVGAGFSGLYALYRLRELGRSVHVIETAGDVGGVWYWNRYPGARCDIESIEYCYSFSEEVLQEWNWTERYASQPEILRYINFVADKFDLRSGITFHTTVTAAAFDEATNTWTVDTNHGDRIRARYLIMASGQLSVPQLPNFPGLKDFAGNLYHTGNWPHEPVDFSGQRVGVIGTGSSGIQVSPQIAKQAAELFVFQRTPHFAVPARNAPLDPEFLADLKKRYAEFREESRNTPGGTHRYQGPKSALEVSDEELVETLERYWQEGGPDILAAYRDILRDRDANERVAEFIRNKIRNTVRDPEVAERLVPKGYPFGTKRLILEIDYYEMFNRDNVHLVDTLSAPIETITPRGVRTSEREYELDSLVLATGFDALTGALFKIDIRGVGNVALKEKWAAGPRTYLGLSTAGFPNLFFIAGPGSPSALSNMLVSIEQHVEWVTDHIAYMFKNGLTRSEAVLEKEDEWVEHVNEIADETLYPMTASWYTGANVPGKPRVFMLYVGGFHRYRQICDEVAAKGYEGFVLTGGGGSGGGGSGGGGSSLRECELYVQKHNIQALLKDSIVQLCTARPERPMAFLREYFERLEKEEAK
B2: PTDHI (phosphite dehydrogenase with a C-terminal RIDD tag) (enzyme)
chain: MLPKLVITHRVHEEILQLLAPHCELITNQTDSTLTREEILRRCRDAQAMMAFMPDRVDADFLQACPELRVIGCALKGFDNFDVDACTARGVWLTFVPDLLTVPTAELAIGLAVGLGRHLRAADAFVRSGQFRGWQPRFYGTGLDNATVGFLGMGAIGLAMADRLQGWGATLQYHARKALDTQTEQRLGLRQVACSELFASSDFILLALPLNADTLHLVNAELLALVRPGALLVNPCRGSVVDEAAVLAALERGQLGGYAADVFEMEDWARADRPQQIDPALLAHPNTLFTPHIGSAVRAVRLEIERCAAQNILQALAGERPINAVNRLPKANGGGGSGGGGSGGGGSSLRECELYVQKHNIQALLKDSIVQLCTARPERPMAFLREYFERLEKEEAK
modifications: PTDH taken as the thermostable A176R variant of PDB 4E5P (cited in Figure 1); the exact pCRE2 variant and C-terminus are not printed. RIDD taken as the conventional RI-alpha docking domain …

Columns and labels:
[1] = biological target: the molecule itself; assay: SEC; each purified tagged protein alone, in the absence of any other tagged protein; Superdex 200 (10/300), 50 mM Tris–HCl with 150 mM NaCl, pH 7.5
[2] = biological target: T1, PTDHI (phosphite dehydrogenase with a C-terminal RIDD tag); assay: as above; conditions: both partners purified
T1 chain: B2 chain

| Binder | stoichiometry N [1] | stoichiometry N [2] |
| --- | --- | --- |
| B1 | 2 | – |
| B2 | – | 2 |
